T1: human Ang-2 V345M (human, UniProt O15123 19-496)
T1 sequence: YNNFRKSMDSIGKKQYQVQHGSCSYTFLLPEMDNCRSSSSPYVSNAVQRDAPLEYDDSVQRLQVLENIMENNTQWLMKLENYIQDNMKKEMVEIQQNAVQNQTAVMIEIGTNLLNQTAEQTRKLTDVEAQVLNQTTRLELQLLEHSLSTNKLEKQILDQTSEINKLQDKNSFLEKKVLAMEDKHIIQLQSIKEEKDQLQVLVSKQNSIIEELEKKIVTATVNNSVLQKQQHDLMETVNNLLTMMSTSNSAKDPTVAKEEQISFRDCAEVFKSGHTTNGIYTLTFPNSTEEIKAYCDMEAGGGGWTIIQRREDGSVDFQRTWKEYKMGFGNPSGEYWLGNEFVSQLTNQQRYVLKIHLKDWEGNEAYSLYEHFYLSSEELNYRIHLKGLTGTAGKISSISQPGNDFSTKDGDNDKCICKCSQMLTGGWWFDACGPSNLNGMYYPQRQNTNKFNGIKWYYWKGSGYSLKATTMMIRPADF

T2: human Angiopoietin-1 (human, UniProt Q15389 20-498, limits assumed)
T2 construct: Bought recombinant protein (R&D Systems 293-AN-025/CF) or supernatant of transfected 293F cells; also called Ang-1; recombinant Ang-1
T2 sequence: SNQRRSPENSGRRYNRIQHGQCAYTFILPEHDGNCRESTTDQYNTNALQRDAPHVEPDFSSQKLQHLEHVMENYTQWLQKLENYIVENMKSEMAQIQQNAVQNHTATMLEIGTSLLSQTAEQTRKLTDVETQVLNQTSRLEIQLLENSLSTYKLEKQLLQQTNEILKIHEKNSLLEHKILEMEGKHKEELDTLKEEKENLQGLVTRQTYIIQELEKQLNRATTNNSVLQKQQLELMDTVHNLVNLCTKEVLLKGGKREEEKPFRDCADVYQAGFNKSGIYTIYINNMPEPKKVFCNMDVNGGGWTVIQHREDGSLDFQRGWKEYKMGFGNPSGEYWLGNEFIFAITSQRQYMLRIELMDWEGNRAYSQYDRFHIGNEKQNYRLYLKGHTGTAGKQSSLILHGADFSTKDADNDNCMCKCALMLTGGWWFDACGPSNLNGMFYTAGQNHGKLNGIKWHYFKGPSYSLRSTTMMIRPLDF

T3: human Angiopoietin-2 (human, UniProt O15123 19-496)
T3 construct: Mostly bought recombinant protein (R&D Systems 623-AM/CF, 623-AN; biotinylated BT623) or supernatant of transfected 293F cells; also called Ang-2; rhAng-2
T3 sequence: T1 sequence with M326V

T4: mouse Angiopoietin-2 (mouse, UniProt O35608 19-496)
T4 construct: Used as conditioned medium of transfectants; also called mAng-2; mouse Ang-2
T4 sequence: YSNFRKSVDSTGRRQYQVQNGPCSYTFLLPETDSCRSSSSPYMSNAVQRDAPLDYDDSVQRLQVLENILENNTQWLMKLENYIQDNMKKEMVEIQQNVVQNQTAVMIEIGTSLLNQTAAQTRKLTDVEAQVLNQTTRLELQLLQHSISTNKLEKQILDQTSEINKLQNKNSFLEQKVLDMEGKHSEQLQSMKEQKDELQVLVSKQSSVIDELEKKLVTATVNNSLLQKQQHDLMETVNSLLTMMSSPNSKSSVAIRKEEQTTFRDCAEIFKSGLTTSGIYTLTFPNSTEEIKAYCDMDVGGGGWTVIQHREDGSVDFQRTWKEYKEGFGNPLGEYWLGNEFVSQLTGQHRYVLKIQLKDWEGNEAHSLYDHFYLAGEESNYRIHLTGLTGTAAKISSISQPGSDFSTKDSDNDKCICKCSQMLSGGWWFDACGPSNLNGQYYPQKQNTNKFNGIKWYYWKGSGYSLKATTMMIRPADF

B1: mAb 5.86.1 (antibody, V domains shown)
VH: QVQLVQSGAEVKKPGASVKVSCKASGYTFTGYHMYWVRQAPGQGLEWLGWINPNSGGTNYAQKFQGRVTMTRDTSISTAYMELSRLRSDDTAVYYCVRDQGIAAAGPFDYWCQGTLVTVSS
VL: DIRMTQSPSSLSASVGDRVTITCRASQRISTYLNWYQQKPGKAPKFLIYAASSLQSGVPSRFSGSGSGTDFTLTISSLQPEDFATYYCQQSYTTPFTFGPGTKVDIKR
notes: Human hybridoma IgG (XenoMouse); also called x5.86
B2: mAb 3.19.3 (antibody, V domains shown)
VH: QVQLVESGGGVVQPGRSLRLSCAASGFTFTNYGMHWGRQAPGKGLEWVAVISHDGNNKYYVDSVKGRFTISRDNSKNTLYLQMNSLRAEDTAVYYCAREGIDFWSGLNWFDPWGQGTLVTVSS
VL: EIVLTQSPGTLSLSPGERATLSCRASQSITGSYLAWYQQKPGQAPRLLICGASSWATGIPDRFSGSGSGTDFTLTISRLEPEDFAVYYCQQYSSSPITFGQGTRLEIKR
notes: Human hybridoma IgG (XenoMouse); also called x3.19
B3: mAb 5.56.1 (antibody, V domains shown)
VH: QVQLVESGGGVVQPGRSLRLSCAASGFTFSSYGMHWVRQAPGKGLEWVAVIWYDGSNKYYADSVKGRFTISRDNSKNTLYLQMNSLRAEDTAVYYCAREDNWNFYFDYWGQGTLVTVSS
VL: DIQMTQSPSSLSASVGDRVTITCRASQGISYYLAWYQQKPGKVPKLLIYAASTLQSGVPSRFSGSGSGTDFTLTISSLQPEDVATYYCQKYNSAPFTFGPGTKVDIKR
notes: Human hybridoma IgG (XenoMouse); also called x5.56
B4: mAb 5.28.1 (antibody, V domains shown)
VH: EVQLVESGGIVVQPGGSLRLSCAASGFTFDDYTMHWVRQTPGKGLEWVSLISWDGGSTYYADSVKGRFTISRDNSKNSLYLQMNSLRTEDTALYYCAKDIDIAVAGTGFDHWGQGTLVTVSS
VL: EIVMTQSPATLSVSPGERATLSCRASQSVTSNLAWYQQKPGQAPRLLIYGALIRATGIPARFSGSGSGTEFTLTISSLQSEDFAVYYCQQYNNWPFTFGPGTKVDIKR
notes: Human hybridoma IgG (XenoMouse); also called x5.28
B5: mAb 5.83.1 (antibody, V domains shown)
VH: not shown
VL: EIVMTQSPATLSVSPGERATLSCRASQSLISNLAWYQQKPGQAPRLLIFGASTRATGIPARFSGSGSGTEFTLTISSLQSEDFAVYYCHQYNNWWTFGQGTKVEIKR
notes: Human hybridoma IgG (XenoMouse); also called x5.83
B6: mAb 3.31.2 (antibody, V domains shown)
VH: EVQLVESGGGLVQPGGSLRLSCAASGFTFSSYWMSWVRQAPGKGLEWVANIKQDGSDKYYVDSVKGRFTISRDNAKNSLYLRMNSLRAEDTAVFYCARDMGSGWFDYWGQGTLVTVSS
VL: B5 VL with I2V, L29V, I30G, F49Y, Y87C, H89Q, N93H
notes: Human hybridoma IgG (XenoMouse); also called x3.31
B7: mAb 5.88.3 (antibody, V domains shown)
VH: EVQMVESGGGLVQPGGSLRLSCAASGFTLRSYWMSWVRQAPGKGLEWVANIKEDGSEKYHVDSVKGRFTISRDNAENSLFLQMSSLRAEDTAVYYCARDMEASAGLFDYWGQGTLVTVSS
VL: B5 VL with T20I, L29I, I30S, F49Y, H89Q, N93Y
notes: Human hybridoma IgG (XenoMouse); also called x5.88
B8: mAb 5.101.1 (antibody, V domains shown)
VH: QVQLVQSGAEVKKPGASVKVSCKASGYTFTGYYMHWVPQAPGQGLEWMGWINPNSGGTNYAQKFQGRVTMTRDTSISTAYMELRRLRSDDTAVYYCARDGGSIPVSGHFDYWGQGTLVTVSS
VL: B5 VL
notes: Human hybridoma IgG (XenoMouse); also called x5.101
B9: mAb 5.54.1 (antibody, V domains shown)
VH: not shown
VL: B5 VL with V85I
notes: Human hybridoma IgG (XenoMouse); also called x5.54
B10: mAb 3.3.2 (antibody, V domains shown)
VH: EVQLVESGGGLVQPGGSLRLSCAVSGFTFSSYWMSWVRQAPGKGLEWVANIKQDGSEKYYVDSVKGRFTISRDNAKNSLYLQMNSLRAEDTAVYYCARDQGIAVAGPFDYWGQGTLVTVSS
VL: B5 VL with S28T, L29V, I30S, N32D, F49Y, T53I, Y87S, H89Q, N92Y
notes: Human hybridoma IgG (XenoMouse); also called 3.3.1; x3.3
B11: mAb 5.52.1 (antibody, V domains shown)
VH: QVQLVESGGGVVQPGRSLRLSCAASGFTFSSYGMHWVRQAPGKGLEWVAVRWYDESNKYYADSVKGRFTISRDNSKNTLYLQMNSLRAEDTAVYYCARDPFETGTTFDYWGQGTLVTVSS
VL: DIQMTQSPSSVSASVGDRVTITCRASQGISSWLAWYQQKPGKAPKLLIYAVSSLESGVPSRFSGSGSGTDFTLTISSLQPEDFATYYCQQALTFGGGTKVEIKR
notes: Human hybridoma IgG (XenoMouse); the line 5.52 has entries of its own (347, 349; light chain L2) that differ from the clone 5.52.1 (L5); also called x5.52

Changes are numbered by the printed parent chain.

For orientation: koff means a measure of how fast the partners let go of each other. High values mean fast dissociation, low ones slow dissociation.

The target in one assay is T1, human Ang-2 V345M. The experiment in a line: ELISA. For orientation: An ELISA detects its analyte on a solid surface through an enzyme-linked reagent.
Regarding B1, the “% of binding to human Ang-2” value was found to be 100%.
For the molecule B2, the “% of binding to human Ang-2” value worked out at 100%.
B3: the “% of binding to human Ang-2” value amounted to 100%.
For the molecule B4, the “% of binding to human Ang-2” value stood at 100%.
For the molecule B5, the “% of binding to human Ang-2” value was 100%.
For the molecule B6, the “% of binding to human Ang-2” value was determined as 100%.
Regarding B7, the “% of binding to human Ang-2” value was 100%.
Take B8: the “% of binding to human Ang-2” value came out at 100%.
On to B9, for which the “% of binding to human Ang-2” value was 100%.
B10: the “% of binding to human Ang-2” value is 100%.
Regarding B11, the “% of binding to human Ang-2” value amounted to 100%.

The next assay has as its target T2, human Angiopoietin-1. As to the kind of experiment: capture ELISA. How it is done:
The binding of the top 27 human monoclonal antibodies was detected with a HRP-conjugated goat anti-human antibody, followed by colorimetric horseradish peroxidase substrate (Enhanced K-Blue TMB substrate Neogen Corporation). The absorbance of each well of the ELISA plates was measured at 450 nm on a microplate autoreader.
In the case of B1, the binding result was “no binding”.
Regarding B3, the binding result is given as “no binding”.
Regarding B4, the binding result is “no binding”.
For B5, the binding result is “no binding”.
As for B6, the binding result is recorded as “no binding”.
In the case of B7, the binding result is recorded as “no binding”.
Turning to B8, the binding result is reported as “no binding”.
With B9, the binding result is listed as “no binding”.

Another assay has as its target T3, human Angiopoietin-2. The experiment in a line: Biacore; kd held constant (*). As for the experimental part: The label-free surface plasmon resonance (SPR), or Biacore, was utilized to measure the antibody affinity to the antigen. For this purpose, a high-density goat anti-human antibody surface over a CM5 Biacore chip was prepared using routine amine coupling. All the purified mAbs were diluted to approximately 8 μg/ml in HBS-P running buffer containing 100 μg/ml BSA and 10 mg/mL carboxymethyldextran. Each mAb was captured on a separate surface using a 42-second contact time, and a 5-minute wash for stabilization of the mAb baseline.
Data were fit globally to a 1:1 interaction model to determine the binding kinetics.
For orientation: In SPR one partner is held on a chip, and binding of the other changes the refractive index at the surface.
In turn, B2 registered a koff of at most 1e-05 s⁻¹.
Same read-out and setting: with B3 the figure was at most 1e-05 s⁻¹; with B4, at most 1e-05 s⁻¹; with B5, at most 1e-05 s⁻¹.
Regarding B6, the koff was at most 1e-05 s⁻¹.
B7: the koff was at most 1e-05 s⁻¹.
B9 displayed a koff of at most 1e-05 s⁻¹.
With B10, the koff was at most 1e-05 s⁻¹.

The next assay has as its target T4, mouse Angiopoietin-2. As to the kind of experiment: ELISA, recombinant mouse Ang-2.
For B1, the binding result is reported as “no binding”.
Still for that read-out and setting: with B5 the entry was “no binding”; with B7, “no binding”; with B8, “no binding”.
As for B9, the binding result was “no binding”.
The same measure, in the same setting: with B10 the entry was “no binding”.

The next assay has as its target T3, human Angiopoietin-2. As to the kind of experiment: inhibition of rhAng-2 binding to its receptor.
As for B1, the “OD650 in inhibition assay” value turned out to be 0.0419 OD650.
On to B2, for which the “OD650 in inhibition assay” value came out at 0.0633 OD650.
B3: the “OD650 in inhibition assay” value came out at 0.0863 OD650.
Still for that read-out and setting: with B4 the figure was 0.0821 OD650; with B5, 0.0484 OD650; with B6, 0.0516 OD650.
B7: the “OD650 in inhibition assay” value was 0.0874 OD650.
As for B8, the “OD650 in inhibition assay” value was found to be 0.0824 OD650.
Regarding B9, the “OD650 in inhibition assay” value worked out at 0.044 OD650.
Take B10: the “OD650 in inhibition assay” value was 0.0558 OD650.
On to B11, for which the “OD650 in inhibition assay” value is 0.0627 OD650.

Source of the values: patent US20080267971A1 (published 2008).
